The values that follow come from US11059842B2, “Monosaccharide amine and 3-nitro-2-phenyl-2H-chromene based inhibitors of glucose kinases” (UNIVERSITY OF SOUTH CAROLINA, priority 2019, dated 2021).

Substrate in data set [1]: O=C[C@H](O)[C@@H](O)[C@H](O)[C@H](O)CO
The experiment in a line: TcGlcK Michaelis-Menten kinetics and substrate range. In kind it is biochemical, Trypanosoma cruzi. To be noted: other: substrate; triplicate runs. The method, then:
D-Glucose was also tested as a control with alternative substrates. The protein expression work for TcGlcK and HsHxKIV were each made possible through the E. coli strain BL21(DE3) system. Purification of each enzyme was performed through cobalt-NTA chromatography followed by size-exclusion chromatography; assessment of purity was performed by SDS-PAGE. In enzymatic assays, a time-optimum (TOPT) was determined to be 120 seconds for TcGlcK and 600 seconds for HsHxKIV; all assays were run at room temperature. A general reaction scheme included a first reaction in which the monosaccharide, ATP, and Mg^2+ react with the enzyme, e.g., TcGlcK, forming a hexose-phosphate and ADP. […] Fluorescence of NADPH was monitored using a fluorescence microplate reader with […] wavelengths of 340 nm and 485 nm, respectively.
(§1) FIG. 4 and FIG. 5 present typical Michaelis-Menten enzyme kinetic plots for D-glucose. […] Michaelis-Menten constant (KM) values, which were used as the set final assay concentrations of substrates D-glucose and ATP for the primary screens, were determined for both TcGlcK and HsHxKIV in triplicate runs. […]
All phosphorylated hexoses were shown getting converted into their corresponding products by G6PDH, in abundant quantities through a 30-second time frame. […]

Substrate in data set [2]: O=C[C@H](O)[C@@H](O)[C@H](O)[C@H](O)CO
The experiment in a line: HsHxKIV Michaelis-Menten kinetics. It counts as biochemical, Homo sapiens. Conditions: other: substrate; triplicate runs. The method, then:
D-Glucose was also tested as a control with alternative substrates. The protein expression work for TcGlcK and HsHxKIV were each made possible through the E. coli strain BL21(DE3) system. Purification of each enzyme was performed through cobalt-NTA chromatography followed by size-exclusion chromatography; assessment of purity was performed by SDS-PAGE. In enzymatic assays, a time-optimum (TOPT) was determined to be 120 seconds for TcGlcK and 600 seconds for HsHxKIV; all assays were run at room temperature. A general reaction scheme included a first reaction in which the monosaccharide, ATP, and Mg^2+ react with the enzyme, e.g., TcGlcK, forming a hexose-phosphate and ADP. In a second reaction, hexose-phosphate with the assistance of glucose-6-phosphate dehydrogenase (G6PDH) and NADP^+ was converted to the lactone form of the hexose-phosphate and NADPH. Fluorescence of NADPH was monitored using a fluorescence microplate reader with […] wavelengths of 340 nm and 485 nm, respectively.
as §1

B1: TcGlcK (Trypanosoma cruzi strain CL Brener) (protein)
chain: MNIKELSLHELCEELKTPAWNVPLTFVGDVGGTSARMGFVREGKNDSVHACVTRYSMKRKDITELIEFFNEIIELMPASVIKRVKAGVINVPGPVTGGAVGGPFNNLKGIARLSDYPKALFPPGRSAILNDLEAGGFGVLAVSDAHVFSEYFGVMWEGTQWRTCEQEPAGSVIGRGRCLVLAPGTGLGSSLIYYNPMNQQHIVVPLELGSQTIPMRKDIDYIQTLHAELKLLPNYENMVSGAGLEFHYRQVVRGSRPPCSAGEIAKLASEGDANACKAMKKYHEYLMRVGSEASMALLPLTIVLVGDNIVNNAFFYRNPQNLKEMHREALNHEMERFGFQSRVTYLRQKKLLNLNLMGCYRCGLDLSVGKKQKAQL
As a reminder, the Km is the substrate concentration at which the rate is half of its maximum. B1: the Km in data set [1] came to 0.40 mM.

B2: HsHxKIV (Homo sapiens) (protein)
chain: MLDDRARMEAAKKEKVEQILAEFQLQEEDLKKVMRRMQKEMDRGLRLETHEEASVKMLPTYVRSTPEGSEVGDFLSLDLGGTNFRVMLVKVGEGEEGQWSVKTKHQMYSIPEDAMTGTAEMLFDYISECISDFLDKHQMKHKKLPLGFTFSFPVRHEDIDKGILLNWTKGFKASGAEGNNVVGLLRDAIKRRGDFEMDVVAMVNDTVATMISCYYEDHQCEVGMIVGTGCNACYMEEMQNVELVEGDEGRMCVNTEWGAFGDSGELDEFLLEYDRLVDESSANPGQQLYEKLIGGKYMGELVRLVLLRLVDENLLFHGEASEQLRTRGAFETRFVSQVESDTGDRKQIYNILSTLGLRPSTTDCDIVRRACESVSTRAAHMCSAGLAGVINRMRESRSEDVMRITVGVDGSVYKLHPSFKERFHASVRRLTPSCEITFIESEEGSGRGAALVSAVACKKACMLGQ
For the protein B2, the Michaelis-Menten constant (Km) in data set [2] was 43 mM.
